The target of assay [1] is HLA-B*40:01. Briefly: IEDB peptide-MHC binding, purified MHC/competitive/radioactivity; filed as Kd, often an IC50 or EC50 that approximates it; ≥ and ≤ were set here for values at or beyond the usual limits of such assays.
Assay [2] concerns the target HLA-B*44:02. The description is as above.
Assay [3] addresses HLA-B*44:03. The description is as above. Conditions: source organism: Dengue virus 4 Dominica/814669/1981.
Assay [4] addresses HLA-A*32:01. The assay is described as above.
The target of assay [5] is HLA-A*31:01. The assay can be described thus: IEDB peptide-MHC binding, purified MHC/direct/fluorescence; filed as Kd, often an IC50 or EC50 that approximates it; ≥ and ≤ were set here for values at or beyond the usual limits of such assays. The conditions noted are these: source organism: SARS-CoV1.
In assay [6] the target is HLA-A*33:01. The assay can be described thus: IEDB peptide-MHC binding, purified MHC/competitive/radioactivity; filed as Kd, often an IC50 or EC50 that approximates it; ≥ and ≤ were set here for values at or beyond the usual limits of such assays. The conditions noted are these: source organism: SARS coronavirus Tor2.
Assay [7] concerns the target HLA-A*68:01. The description is as above. The conditions noted are these: source organism: SARS coronavirus Tor2.
The target of assay [8] is HLA-B*08:01. The assay is described as above.
Assay [9] addresses HLA-A*02:01. The assay is described as above. The conditions noted are these: source organism: hepatitis C virus genotype 1a.
Assay [10] has as its target HLA-A*30:01. Described as above.
For assay [11], the target named is HLA-A*01:01. The assay can be described thus: IEDB peptide-MHC binding, purified MHC/direct/fluorescence; filed as Kd, often an IC50 or EC50 that approximates it; ≥ and ≤ were set here for values at or beyond the usual limits of such assays. The conditions noted are these: source organism: Influenza A virus (A/Moscow/343/2003(H3N2)).
Assay [12] addresses HLA-A*01:01. Briefly: IEDB peptide-MHC binding, purified MHC/competitive/radioactivity; filed as Kd, often an IC50 or EC50 that approximates it; ≥ and ≤ were set here for values at or beyond the usual limits of such assays. The conditions noted are these: source organism: Mammarenavirus guanaritoense.
Assay [13] concerns the target HLA-A*26:01. The description is as above.
Assay [14] has as its target HLA-A*29:02. Described as above. Conditions: source organism: Mammarenavirus guanaritoense.
For assay [15], the target named is HLA-A*30:02. The assay is described as above. The conditions noted are these: source organism: Mammarenavirus guanaritoense.
Assay [16] concerns the target HLA-A*11:01. The assay can be described thus: IEDB peptide-MHC binding, purified MHC/direct/fluorescence; filed as Kd, often an IC50 or EC50 that approximates it; ≥ and ≤ were set here for values at or beyond the usual limits of such assays. The conditions noted are these: source organism: Homo sapiens.
Assay [17] concerns the target HLA-B*27:05. The assay is described as above. Conditions: source organism: Homo sapiens.
For assay [18], the target named is HLA-A*02:01. Briefly: IEDB peptide-MHC binding, purified MHC/competitive/fluorescence; ≥ and ≤ were set here for values at or beyond the usual limits of such assays. Conditions: source organism: Variola virus.
The target of assay [19] is HLA-A*03:01. Briefly: IEDB peptide-MHC binding, purified MHC/direct/fluorescence; filed as Kd, often an IC50 or EC50 that approximates it; ≥ and ≤ were set here for values at or beyond the usual limits of such assays. The conditions noted are these: source organism: Pasteurella multocida.
The target in assay [20] is HLA-A*69:01. The description is as above. Conditions: source organism: Pasteurella multocida.
In assay [21] the target is HLA-B*15:01. The description is as above. Conditions: source organism: Pasteurella multocida.
Assay [22] has as its target HLA-B*58:01. The description is as above. The conditions noted are these: source organism: Pasteurella multocida.
Assay [23] addresses HLA-A*31:01. The assay can be described thus: IEDB peptide-MHC binding, purified MHC/competitive/radioactivity; filed as Kd, often an IC50 or EC50 that approximates it; ≥ and ≤ were set here for values at or beyond the usual limits of such assays. Conditions: source organism: Dengue virus 2 Jamaica/1409/1983.
The mark [24] stands for this setting: source organism: Dengue virus 1 Brazil/97-11/1997.
The mark [25] stands for this setting: source organism: Dengue virus 3 Martinique/1243/1999.
The mark [26] stands for this setting: source organism: Dengue virus 4 Dominica/814669/1981.
The mark [27] stands for this setting: source organism: Vaccinia virus WR.
[28] abbreviates: source organism: Dengue virus 4 Philippines/H241/1956.
Where [29] appears, read: source organism: Dengue virus 2 Jamaica/1409/1983.
Setting [30] is: source organism: Mammarenavirus guanaritoense.

With AEALKGMPI, the Kd in assay [1] (setting [24]) is 122 nM; in assay [2] (setting [24]) it was 1.01 nM.

For the sequence AEIPLQWIAS, the dissociation constant Kd in [1] (setting [25]) came out at 2240 nM; in assay [2] (setting [25]) it was 200 nM.

On to AENTNSVTNI, for which the Kd in [1] (setting [26]) is 461 nM; in [2] (setting [26]) it was 130 nM; in [3], 372 nM.

Take AIIAIVFVF: the dissociation constant Kd in assay [4] (setting [27]) came out at 14100 nM.

With ALRANSAVK, the values for the Kd in [5], in assay [6] and in assay [7] were 479 nM, ≥ 77.7 µM and ≥ 26.4 µM, respectively.

In the case of ASKVFFGPI, the dissociation constant (Kd) in assay [8] (setting [27]) turned out to be 12800 nM.

ATIQRFSSL: the Kd in assay [8] (setting [27]) was 3.34 nM.

As for CINGVCWTA, the Kd in [9] came out at 2700 nM.

As to CIVNKFMSF, the dissociation constant (Kd) in assay [8] (setting [27]) worked out at 60.4 nM.

With CRSCTMPPLR, the Kd in assay [10] (setting [28]) turned out to be 1530 nM.

For CTREEFISK, in [10] (setting [28]), the Kd was 21.1 nM.

For the sequence DTKIDLWSY, in assay [11], the Kd is ≥ 20 µM.

With EEEEQTLTI, the equilibrium dissociation constant (Kd) in assay [1] (setting [29]) came out at 103 nM.

As for ELLSYCVSLF, the equilibrium dissociation constant (Kd) in assay [12] was 261 nM; in assay [13] (setting [30]) it was 99.3 nM; in assay [14], 5.8 µM; in [10] (setting [30]), 1060 nM; in [15], 9.75 µM; in [4] (setting [30]) it was 2640 nM.

For EPIKHKYPL, the Kd in [8] (setting [27]) is 1.27 nM.

Consider EQMAPHHKIL, for which, in assay [8] (setting [28]), the Kd amounted to 59.7 nM.

Take ETRTETWMSS: the Kd is 693 nM in assay [13] (setting [29]) and 12800 nM in assay [4] (setting [29]).

Turning to ETWILRHPGF, the dissociation constant Kd was 1380 nM in assay [13] (setting [29]) and 12300 nM in [10] (setting [29]).

On to FTNAGIVAY, for which the Kd in [4] (setting [27]) amounted to 149 nM.

Consider GRNSFEVRV, for which the Kd in [16] was ≥ 37.7 µM; in assay [17] it was 1060 nM.

Turning to GTFKKSGAI, the Kd in [4] (setting [25]) was determined as 4930 nM.

Regarding HKQWFLDLPL, the Kd in assay [8] (setting [24]) came out at 57 nM.

As for HTILYNNTI, the dissociation constant Kd in assay [4] (setting [27]) stood at 1.88 nM.

In assay [18], HTKIDSMFL registered an IC50 of 53.7 µM. Moreover, the Kd in [10] (setting [27]) amounted to 1.46 nM.

Regarding ILYVSCNPA, the dissociation constant Kd is 402 nM in assay [19], 572 nM in [20], 748 nM in assay [21] and 572 nM in assay [22].

For the sequence ISRNKNIFV, the equilibrium dissociation constant (Kd) in assay [10] (setting [27]) came out at 7.28 nM.

On to ITQFETYQL, for which the dissociation constant Kd in [4] (setting [25]) came out at 1630 nM.

For the sequence ITYEKSNNI, the equilibrium dissociation constant (Kd) in assay [4] (setting [27]) came out at 17.5 nM.

With KAYHIIFFV, in assay [10] (setting [27]), the Kd worked out at 405 nM.

For KEEYVDYMPV, in assay [1] (setting [28]), the Kd was determined as 68.7 nM.

With KEISSMLNIM, in [1] (setting [24]), the Kd was found to be 11.1 nM.

Turning to KGEDGCWYGM, the Kd in assay [4] (source organism: Dengue virus 1 Singapore/S275/1990) amounted to 1880 nM.

On to KGKRALAPPV, for which the dissociation constant (Kd) in assay [10] (setting [28]) was determined as 2.27 nM.

Regarding KSKAINVLR, the values for the Kd in assay [10] (setting [29]) and in assay [23] were 103 nM and 1.1 nM, respectively.

With KSKNINIEV, the Kd in assay [10] (setting [27]) was determined as 0.324 nM.

For the sequence KTIFLSEPY, the Kd in [4] (setting [27]) worked out at 2.9 nM.
